Assay: soluble on expression in E. coli; label from the status in PepcDB or PDB records

Sequence | soluble on expression in E. coli
MKFCKKCVMPDTKPDLHFDEEGVCDACRSQEAKNQNINWQEREKEFFELIKKYKKHPVYDCVIGVSGGKDSTFQVVKMLELGLNPLCVCFEPSVPTKIGRKNLDNLNHLGVDLIHIKRDPKVYQKLAREAFIRTGDNEWQNHLGIFTSVPRIAVNFGVPLIIWGESPQIEYGGPASSKNKNILGREWLEEFGGLLGNRASDMLGVNGITEKDLFLYTYPSDEELQRVGVTGLFLGYYFKWDYKKILEISKKYGFLTLDHPVETTYENFENLDCYSNHVHDYLKYCKYGFGRATDNACLDIRLGYISREEGVRLAQKYDGKPPKKAIKKYLEFSGFSEEEFQKIVDSFTNKKIFKRDENGKFIRDYDGSLVRKDECVLK | not soluble
MSLSEDLRFFEFFAGGGMARAGLGNQWQCLFANDMDRIKASTYIQNWGKDHFDSRDIREVNSEDLERNGDLAWASFPCQDLSVAGNGLGIGSSSAKDFTRSGALWPFLDLIDTLRQEERQPPLLVLENVVGLLTLEGGRDFAAICERLGEIGYRYGAVIIDAKHFLPQSRPRVFIIAVQRNIDIPCKLSRGMATANWHTPTLLRAYKSLTPILHADWVWWELGDAPILQENALESFIQREGVLWNTPEETKRIISMMAPAHLARLENAKCAGGVAVGSLYLRMRREGGINKQRAEITFSPLLGCLRTPRGGASRPRIIVVESGHVRTRLLTICEAARLMGLANTYILPEIYHHAFKVIGDGVAVPAVRFLAERLLEPLAIAARGQIAIPHEKAFMAEGHHHHHH | soluble
MSLKELIALKRKVGLPGVTFAAMADGIWVLQVLPGAGIEKTGLRKGHQIVGVGGKPLAGNKLEDLFKAIEANNITDTMSRGSSERMYSRMTRDTKTQGPVVVLNVKQSRQQEKPFLILCKKEMFRSKIIEIEEDEFEDEVLKAPLPVAVTFWGDSCEPCKEFVPVLEAESAKYAGKVKFVNINVDGNRKLADQLAVKEVPALMVYKGGSAVATATGKLPREKVAEMLQDAAGREGHHHHHH | soluble
QLGKDHAIVERNEKIDDAFKSDPASYQSVYDAQGRIKDGQEWMRVSLKGRFDANNEVLLRMRPVEGTPAYQSLVPFTLESGESLLINRGFVPGDAANVPELAAVPTETVTIVAHARANEGMPASAPMSAHGYQQVYGINTTQISEITHTTLGTDFAQLSQDQPGVLNAMPIPQLDRGNHLSYGLQ | not soluble
GMKLLLTRPEGKNAAMASALDALAIPYLVEPLLSVEAAAVTQAQLDELSRADILIFISTSAVSFATPWLKDQWPKATYYAVGDATADALALQGITAERSPADSQATEGLLTLPSLEQVSGKQIVIVRGKGGREAMADGLRLRGANVSYLEVYQRACPPLDAPASVSRWQSFGIDTIVVTSGEVLENLINLVPKDSFAWLRDCHIIVPSARVETQARKKGLRRVTNAGAANQAAVLDALGM | soluble
MLIYISLIMKMERLSMVILELYQNDYSKDLVAFDSIEDGKAFVAQIPGYTLETEDGFEVEYFNPKNIPDYMEIIFNGNIVPLSKFMFDPEENVNIIWKEISNLSLKNDRVIEGYSKIDAYVVNNHEVKAYVETRETNYRKAKDFLESRGYEIDRSFFGSEDGEAILYRKKGIEVWHFLCHLDPMFVEIEDVEGYVKEEVGEIQ | not soluble
MREVISIHIGQAGVQIGNACWELYCLEHGIQPDGQMPSDKSLGGSDDSFSTFFSETGSGRHVPRAVMVDLEPTVIDEIRTGTYRSLFHPEQLITGKEDAANNYARGHYTIGKEIIDLTLDRIRRLADNCTGLQGFLVFHSFGGGTGSGFTSLLMERLSVDYGKKAKLEFSIYPAPQVSTAVVEPYNSILTTHTTLEHSDCSFMVDNEAIYDICRRNLDIERPSYTNLNRLIGQIVSSITASLRFDGALNVDLTEFQTNLVPYPRIHFPLATFSPVISAEKAYHEQLSVAEITNMCFEPHNQMVKCDPRHGKYMAVCLLFRGDVVPKDVNAAIATIKTKRSIQFVDWCPTGFKVGINYQPPTVVPGGDLAKVPRAVCMLSNTTAIAEAWARLDHKFDLMYAKRAFVHWYVGEGMEEGEFSEAREDLAALEKDYEEVGVDSMEDNGEEGDEY | not soluble
MGSDKIHHHHHHMTNANGNLKKCPITISSYTLGTEVSFPKRVKVAAENGFDGIGLRAENYVDALAAGLTDEDMLRILDEHNMKVTEVEYITQWGTAEDRTAEQQKKEQTTFHMARLFGVKHINCGLLEKIPEEQIIVALGELCDRAEELIIGLEFMPYSGVADLQAAWRVAEACGRDNAQLICDTWHWARANQTAESIKNVPADRIVSIQLCDVHETPYKELREESLHDRLAPGEGYGDTVGFAKILKEHGVNPRVMGVEVISDSMVATGLEYAALKVYNATKKVLDEAWPEISPR | soluble
MPGIAIIGAQWGDEGKGKVVDVLAREADYVIRYQGGANAGHTVVAEGKVFKLNLLPSGVIHPHAVNVLGDGMVIDPFRFQEEVEGLRKEGFDPKILVSERAHLVLPHHKHVESRHNFVGTTGRGIGPAYSDRARRVGIRAGDLLDEATLRERVRRLLAEKPNSTREAGWDTEEKALADLHRMREILSPYIADTGSLLREAWRKGKRLLFEGAQATLLDLNYGTYPYVTSSHPTVGGILVGTGLSHKAITKVYGVAKAYTTRVGEGPFPTELQGELAHHLREKGGEYGTTTGRPRRVGWLDLVALRYACEVNGFDGLVLTKLDVLSGLEKVKVAVEYLDGARPGEASPEAVRYLELPGWGDLSHVKRREDLPANLLRYLELVEEHTGVPVVLFSTSPRREDTFGAVSWV | soluble
MGSDKIHHHHHHMKFLFIVQGEGRGHLTQAITLEEMLLRNGHEVVEVLVGESSSRILPGFFNRNIQAPVKRFISPNFLPAADNKRANLKKSFTYNLLRIPEYFRSMCYINQRIKETGAEVVINFYELLTGLTYALFRPSVPYVCVGHQYLFLHQNFEFPDKNSFELRMLRFFTKMTAVRSSKKLALSFNDMEPDRGQQVVVVPPLIRQEVTAIQPEEGNYIHGYMVNSGFADSVEEFHTIYPEVPLRFFWDKADAEEVTRIDETLSFYQIDDVKFLNGMAGCRAYATTAGFESICEAMYLGKPVLMVPAHIEQDCNAHDAMRAGAGIISDSFDLKPLLRFAGTYSPNRTFVRWVRSGERRIILELEKLAASQSAITSIPTFTNYLPI | not soluble
GPGSMADILKSVKRIVVKVGSSILVDNQEIAAHRIEALCKFIADLQTKYEVILVTSGAVAAGYTQKEMDKAYVPNKQALASMGQPLLMHMYYTQLQKHGILCAQMLLAAYDLDSRKRTMNAHNTIEVLISHKVIPIINENDATALHELVFGDNDRLSALVAHHFKADLLVILSDIDGYYTENPRASTDAKIRSVVHELSPDDLVAEATPNNPFATGGIVTKLQAAQFLLERGGKMYLSSGFHLEKAREFLFGGSHEIGTLFYPRGSSS | soluble
MSTIHEFPKNYERFIAQGEEALVEHNQIAALENFQQAYQLQQTPPVNQKIVQLLLEMGEADEALALAEAFQESYFENLETAAIYMQIYSQSRRFIEGYILLKQLLQTKKITLAQQKTLEQQLMQVEEAYQQLETQQIQAIKRNLLVSDQLPVYQQLANIKTSLYLPKPVFVEVAKDLVMNQALSYFAREWFIEELALLQFSEPLTFLWYDNQPQTVLLEGKTGPLNTPIYSEICTELRNRLENDDPIMLQHLEEEIRLHLAYLYPLAETVISDPTIWVLGYLATYYPEYIEKELTEAKGHQIDAVQKVQQAIRTAFTQIML | soluble
MNNREKEILAILRRNPLIQQNEIADMLQISRSRVAAHIMDLMRKGRIKGKGYILTEQEYCVVVGTINMDIRGMADIRYPQSASHPGTIHCSAGGVGRNIAHNLALLGRDVHLLSVIGDDFYGEMLLEETRRAGVNVSGCVRLHGQSTSTYLAIANRDDQTVLAINDTHLLEQLTPQLLNGSRDLLRHAGVVLADCNLTAEALEWVFTLADEIPVFVDTVSEFKAGKIKHWLAHIHTLKPTLPELEILWGQAITSDADRNTAVNALHQQGVQQLFVYLPDESVYCSEKDGEQFLLTAPAHTTVDSFGADDGFMAGLVYSFLEGYSFRDSARFAVACAAISRASGSLNNPTLSADNALSLVPMV | not soluble
MTVSRFLRNPEQVSVALRGKIAAALDELGYIPNRAPDILSNATSRAIGVLLPSLTNQVFAEVLRGIESVTDAHGYQTMLAHYGYKPEMEQERLESMLSWNIDGLILTERTHTPRTLKMIEVAGIPVVELMDSQSPCLDIAVGFDNFEAARQMTTAIIARGHRHIAYLGARLDERTIIKQKGYEQAMLDAGLVPYSVMVEQSSSYSSGIELIRQARREYPQLDGVFCTNDDLAVGAAFECQRLGLKVPDDMAIAGFHGHDIGQVMEPRLASVLTPRERMGSIGAERLLARIRGESVTPKMLDLGFTLSPGGSI | not soluble
MSDSVSDAQAQSTPEGAQQKPILRVVKGNPDPTQVATLTALFASMADNAAQQSKQERERNLWGNVEERLQRPTTYNPTAFRNVSFF | not soluble
MEAAHFFEGTEKLLEVWFSRQQPDANQGSGDLRTIPRSEWDILLKDVQCSIISVTKTDKQEAYVLSEASMFVSKRRFILKTCGTTLLLKALVPLLKLARDYSGFDSIQSFFYSRKNFMKPSHQGYPHRNFQEEIEFLNAIFPNGAAYCMGRMNSDCWYLYTLDFPESRVISQPDQTLEILMSELDPAVMDQFYMKDGVTAKDVTRESGIRDLIPGSVIDATMFNPCGYSMNGMKSDGTYWTIHITPEPEFSYVSFETNLSQTSYDDLIRKVVEVFKPGKFVTTLFVNQSSKCRTVLASPQKIEGFKRLDCQSAMFNDYNFVFTSFAKKQQQQQSHICRSQMVTSQQTSSVVRQT | soluble
MSLQIQGQIVDIENKRIYSGEITIQNGKIISIIEKNHEVKNYILPGFIDAHIHIESSMLVPSEFAKIAVLHGTVATISDPHEIANVLGKKGVYYMIENGKQVPLKFHFGAPSCVPATAFETAGAIIDSEEIKELMASPDIYYLSEMMNYPGVLFDDDEVLKKIAWAKHFNKPIDGHAPGLRGEPIKKYISAGITTDHECFTYSEAQEKLSLGMKVIIREGSAAKNFEALIDLLPANYENMMFCSDDKHPDDLILGHINLLCARAVAKGIDVFKILQVACVNPVHHYKMKVGLLKKNDAADFIVVEDLVNFKVNKTYINGELVAENGQSFVENINFETPNNFNITKKKISDFEIPSLAEKIRVIEALEGQLITNEIHHNSFIKNGKLVSDIENDILKMAVVNRYQNTTPAIAFIKNFGLKKGAIASSVAHDCHNIVVVGTSDEEICNAVNLIIKNTGGICAVNGTQNKSLALPVAGIMSDKDAWETGKLYQEIDAMAKDLGSTLKAPFMTLSFMALLVIPDLKLSDKGLFSGNTFSFVDLNVEEGHHHHHH | soluble
MHHHHHHSSRQEPPKIHLDCPGRIPDTIVVVAGNKLRLDVPISGDPAPTVIWQKAITQGNKAPARPAPDAPEDTGDSDEWVFDKKLLCETEGRVRVETTKDRSIFTVEGAEKEDEGVYTVTVKNPVGEDQVNLTVKVID | soluble
GMDIQNMPREQLGVCAEGNLHSVYLMFNANDNVESQLRPCIANVAQYIYELTDQYSDSAFNGFVAIGANYWDSLYPESRPEMLKPFPAMQEGNREAPAIEYDLFVHLRCDRYDILHLVANEISQMFEDLVELVEEERGFRFMDSRDLTGFVDGTENPKGRHRQEVALVGSEDPEFKGGSYIHVQKYAHNLSKWHRLPLKKQEDIIGRTKQDNIEYESEDKPLTSHIKRVNLKDENGKSIEILRQSMPYGSLKEQGLMFISTCRTPDHFEKMLHSMVFGDGAGNHDHLMHFTSALTGSSFFAPSLDFLMQFDN | soluble
MAHHHHHHMSASAPRVGLLGAANIAWRAWTGVRANGMSVTRVGCRDVDRGRNFVKRVCDALKIDEAAVPAVCSYEELVSAADVDVVYIAIPVKARDHWVRECIKYKKHVVGEKPPATDAEMLRSWIEALDQQNLLYMDGTMLSHGKRVKEICAAVKQMGGPVKHIFANVTLGGDEAFLANNIRTNPELEPHGALGDLGWYCIRYALHLMDFQMPTEVTGRILKQNDKGAIISFIGDMTFEVGGEVALVSFFVSFEAAFEQTLHITTTEGMLQLDDMCLPMTSRPETVYYEVHNSSYDNVCESHNLHTEVKHTVNGDAPNSQCTELWGDVARILYADGEGDARRLKAKEESSRYWATVSWKTQAVMDKMLESALIGRNAAPTA | not soluble

— the DeepSol protein solubility set
